Assay in all cases: SEC
On the technique in general: In gel filtration, larger molecules generally elute earlier.

Assay [1] concerns the target globular N-terminal domain of human apolipoprotein A-I (residue fragment 1–184), Glu34Lys (human).
For assay [2], the target named is globular N-terminal domain of human apolipoprotein A-I (residue fragment 1–184), Leu159Arg (human).
In assay [3] the target is globular N-terminal domain of human apolipoprotein A-I (residue fragment 1–184), Phe71Tyr (human).
The target of assay [4] is globular N-terminal domain of human apolipoprotein A-I (residue fragment 1–184), wild type (human).

Usually stoichiometry N stands for the number of molecules, sites or subunits per partner or assembly.

“globular N-terminal domain of human apolipoprotein A-I (residue fragment 1–184), Glu34Lys (domain or fragment)” had a stoichiometry N in assay [1] of 2.
For the substance “globular N-terminal domain of human apolipoprotein A-I (residue fragment 1–184), Leu159Arg (domain or fragment)”, the stoichiometry N in assay [2] was found to be 2.
“globular N-terminal domain of human apolipoprotein A-I (residue fragment 1–184), Phe71Tyr (domain or fragment)” had a stoichiometry N in assay [3] of 2.
Consider “globular N-terminal domain of human apolipoprotein A-I (residue fragment 1–184), wild type (domain or fragment)”, for which the stoichiometry N in assay [4] is 2.

The record behind these values is PMC11259198.
